Laboratory results published in patent US20230192837A1 (published 2023).

How the values were obtained:
cynomolgus monkey TNFα = cynomolgus monkey TNFα (cynomolgus monkey, UniProt P79337 57-233, limits assumed); test: cell-based or functional assay
human TNFα [1] = molecular target: T1, human TNFα (human, UniProt P01375 57-233, limits assumed); test: cell-based or functional assay
human TNFα [2] = molecular target: T1, human TNFα; test: cell-based or functional assay; remark: listed apart in the source
[3] = molecular target: membrane human TNFα (non-cleavable TNFα) expressed on CHO cells (human, UniProt P01375 1-233); test: cell-based or functional assay
rhesus macaque TNFα = molecular target: T2, rhesus macaque TNFα (rhesus macaque, UniProt P48094 77-233); test: antigen-down ELISA, TNFα coated on plate, anti-human kappa-AP detection
T2 construct: Bought (R&D Systems, Cat #1070-RM); also called rhesus macaque monkey TNFα
Description: Once the color developed (approximately 15-30 min), plates were read at 560 nm OD on a Molecular Device Spectramax plate reader and data was acquired using Softmax Pro 4.7 software. Data analysis was performed in GraphPad Prism.

Sequence of cynomolgus monkey TNFα (P79337 57-233 limits assumed, form in doubt): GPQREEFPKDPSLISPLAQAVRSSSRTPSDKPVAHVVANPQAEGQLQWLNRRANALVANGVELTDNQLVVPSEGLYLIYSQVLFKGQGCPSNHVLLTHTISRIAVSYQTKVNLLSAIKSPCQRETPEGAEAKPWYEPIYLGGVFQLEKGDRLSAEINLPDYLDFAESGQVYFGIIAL
T1 sequence (P01375 57-233 limits assumed, form in doubt): as the sequence (P79337 57-233 limits assumed, form in doubt) above, with K9R, P11L, V57L, T64R, N92T, L158R counted along it
T2 sequence (P48094 77-233 limits assumed): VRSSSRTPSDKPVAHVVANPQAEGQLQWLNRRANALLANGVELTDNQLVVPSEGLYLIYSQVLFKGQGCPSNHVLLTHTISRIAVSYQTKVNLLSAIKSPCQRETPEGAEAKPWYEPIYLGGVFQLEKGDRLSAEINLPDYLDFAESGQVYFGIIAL

| Binder | IC50 of inhibition of soluble cynomolgus monkey TNFα induced cell killing of L929 cells (cynomolgus monkey TNFα) | IC50 of inhibition of soluble human TNFα induced cell killing of L929 cells (human TNFα [1]) | % Inhibition of human TNFα-induced plasma CXCL1 in C57/B6 mice, dose 0.3 mg/kg (human TNFα [2]) | % Inhibition of human TNFα-induced plasma CXCL1 in C57/B6 mice, dose 3 mg/kg (human TNFα [2]) | IC50 of inhibition of membrane TNFα-induced cell killing of L929 cells [3] | EC50 (rhesus macaque TNFα) |
| --- | --- | --- | --- | --- | --- | --- |
| Ab3 (antibody, human IgG1, kappa, V domains shown) VH: QVQLVQSGAEVKKPGASVKVSCKASGYTFTGYYMHWVRQAPGQGLEWMGWINPYTGGTKYAQKFQGRVTMTRDTSISTAYMELSRLRSDDTAVYYCARDLYGSSNYGMDVWGQGTTVTVSS VL: not shown | 0.02 µg/mL | 0.19 µg/mL | 64.4% | 86.6% | – | – |
| Ab5 (antibody, human IgG1, kappa, V domains shown) VH: QVQLVQSGAEVKKPGASVKVSCKASGYTFTGYYMHWVRQAPGQGLEWMGWINPYTGGTKYAQKFQGRVTMTRDTSISTAYMELSRLRSDDTAVYYCARDLYGSSNYGMDVWGQGTTVTVSS VL: DIQMTQSPSSLSASVGDRVTITCQASQGIRNYLNWYQQKPGKAPKLLIYDASNLETGVPSRFSGSGSGTDFTFTISSLQPEDIATYYCQQYDKLPLTFGGGTKVEIKR | 0.03 µg/mL | 0.22 µg/mL | 49.8% | 84.3% | 0.2 µg/mL | – |
| Ab1 (antibody, human IgG1, kappa, V domains shown, Human IgG1 with kappa light chain, expressed in CHO cells; also called exemplified anti-human TNFα antibody Ab1) VH: QVQLVQSGAEVKKPGASVKVSCKASGYTFTGYYIHWVRQAPGQGLEWMGWINPYTGGTNYAQKFQGRVTMTRDTSISTAYMELSRLRSDDTAVYYCARDLYGSSNYGGDVWGQGTTVTVSS VL: not shown | 0.02 µg/mL | 0.16 µg/mL | 63% | 83.9% | – | 0.155 µg/mL |
| Ab2 (antibody, human IgG1, kappa, V domains shown) VH: QVQLVQSGAEVKKPGASVKVSCKASGYTFTGYYIHWVRQAPGQGLEWMGWINPYTGGTNYAQKFQGRVTMTRDTSISTAYMELSRLRSDDTAVYYCARDLYGSSNYGMDVWGQGTTVTVSS VL: not shown | 0.02 µg/mL | 0.13 µg/mL | 46.5% | 82.1% | – | – |
| Ab4 (antibody, human IgG1, kappa, V domains shown) VH: QVQLVQSGAEVKKPGASVKVSCKASGYTFTGYYMHWVRQAPGQGLEWMGWINPYTGGTKYAQKFQGRVTMTRDTSISTAYMELSRLRSDDTAVYYCARDLYGSSNYGMDVWGQGTTVTVSS VL: not shown | 0.02 µg/mL | 0.19 µg/mL | 57.2% | 92.6% | – | – |
